Assay results: PMC6819821, “Interaction of Cholesterol With the Human SLC1A5 (ASCT2): Insights Into Structure/Function Relationships” (Frontiers in Molecular Biosciences, 2019)

B1: human SLC1A5 (ASCT2), endogenous in HeLa cells (natural protein, human (endogenous in HeLa), UniProt Q15758 1-541, looked up)
chain: MVADPPRDSKGLAAAEPTANGGLALASIEDQGAAAGGYCGSRDQVRRCLRANLLVLLTVVAVVAGVALGLGVSGAGGALALGPERLSAFVFPGELLLRLLRMIILPLVVCSLIGGAASLDPGALGRLGAWALLFFLVTTLLASALGVGLALALQPGAASAAINASVGAAGSAENAPSKEVLDSFLDLARNIFPSNLVSAAFRSYSTTYEERNITGTRVKVPVGQEVEGMNILGLVVFAIVFGVALRKLGPEGELLIRFFNSFNEATMVLVSWIMWYAPVGIMFLVAGKIVEMEDVGLLFARLGKYILCCLLGHAIHGLLVLPLIYFLFTRKNPYRFLWGIVTPLATAFGTSSSSATLPLMMKCVEENNGVAKHISRFILPIGATVNMDGAALFQCVAAVFIAQLSQQSLDFVKIITILVTATASSVGAAGIPAGGVLTLAIILEAVNLPVDHISLILAVDWLVDRSCTVLNVEGDALGAGLLQNYVDRTESRSTEPELIQVKSELPLDPLPVPTEEGNPLLKHYRGPAGDATVASEKESVM
notes: ASCT2 (SLC1A5), sodium-dependent neutral amino acid antiporter, endogenous in HeLa cells; Detected with anti-hASCT2 (rabbit, Millipore) after formaldehyde cross-linking of intact cells; also called hASCT2; source: endogenous, intact HeLa cells (cross-linked in the cells, then total lysate)
B2: recombinant hASCT2-6His WT (natural protein, human)
chain: MVADPPRDSKGLAAAEPTANGGLALASIEDQGAAAGGYCGSRDQVRRCLRANLLVLLTVVAVVAGVALGLGVSGAGGALALGPERLSAFVFPGELLLRLLRMIILPLVVCSLIGGAASLDPGALGRLGAWALLFFLVTTLLASALGVGLALALQPGAASAAINASVGAAGSAENAPSKEVLDSFLDLARNIFPSNLVSAAFRSYSTTYEERNITGTRVKVPVGQEVEGMNILGLVVFAIVFGVALRKLGPEGELLIRFFNSFNEATMVLVSWIMWYAPVGIMFLVAGKIVEMEDVGLLFARLGKYILCCLLGHAIHGLLVLPLIYFLFTRKNPYRFLWGIVTPLATAFGTSSSSATLPLMMKCVEENNGVAKHISRFILPIGATVNMDGAALFQCVAAVFIAQLSQQSLDFVKIITILVTATASSVGAAGIPAGGVLTLAIILEAVNLPVDHISLILAVDWLVDRSCTVLNVEGDALGAGLLQNYVDRTESRSTEPELIQVKSELPLDPLPVPTEEGNPLLKHYRGPAGDATVASEKESVM
notes: human ASCT2 (SLC1A5), wild type, construct pPICZB-ASCT2-6His; no cleavage of the tag is described; In the cross-linking the protein was detected with anti-hASCT2; also called purified WT hASCT2; SLC1A5; source: P. pastoris X-33 (pPICZB-ASCT2-6His), solubilised in C12E8, purified (Ni-NTA, PD-10)

How the values were obtained:
[1] = molecular target: the molecule itself; assay: cross-linking; intact HeLa cells treated with 0.75% formaldehyde for 10 min at room temperature, stopped with 125 mM glycine; 50 ug total lysate on 8% SDS-PAGE, immunoblot with anti-hASCT2
[2] = molecular target: the molecule itself; assay: cross-linking; purified WT hASCT2 in detergent, without or with 0.75 mg CHEMS, 1 or 4% formaldehyde in 20 mM Tris HCl pH 9.0 for 2 min at 23°C, stopped with 1.25 M glycine; 8% SDS-PAGE, immunoblot with anti-hASCT2

Protein | stoichiometry N [1] | stoichiometry N [2]
B1 | 3 | 
B2 |  | 3
